The target of data set [1] is thioredoxin mutant including only C32 (TRXC32) (UniProt P10599). The experiment in a line: cross-linking.
The data set “SEC” concerns the molecule itself. Briefly: SEC.

Take “thioredoxin mutant including only C32 (TRXC32) (from UniProt P10599 1-105) (enzyme)”: in data set [1], the stoichiometry N was found to be 2.

B1: N-terminally truncated APE1 including only Cys 99 with all other Cys residues mutated to Ala (40APE1 C99) (domain or fragment, human, UniProt P27695 41-318, looked up)
chain: GPALYEDPPDQKTSPSGKPATLKIASWNVDGLRAWIKKKGLDWVKEEAPDILALQETKCSENKLPAELQELPGLSHQYWSAPSDKEGYSGVGLLSRQAPLKVSYGIGDEEHDQEGRVIVAEFDSFVLVTAYVPNAGRGLVRLEYRQRWDEAFRKFLKGLASRKPLVLAGDLNVAHEEIDLRNPKGNKKNAGFTPQERQGFGELLQAVPLADSFRHLYPNTPYAYTFWTYMMNARSKNVGWRLDYFLLSHSLLPALADSKIRSKALGSDHAPITLYLAL
modifications: Cys 99 oxidised with 1 mM diamide before the reaction with TRXC32
Turning to B1, the binding result in the data set “SEC” is recorded as “binds”.

Source of the values: PMC3293223 (Biochemistry, 2012).
